Experimental findings from patent US20260226125A1 (MEDICENNA THERAPEUTICS, published 2026) are described below.

Assay [1] has as its target T1, human CD25 (IL-2Rα) (human, UniProt P01589 22-240, limits assumed).
T1 construct: Receptor reagent used in SPR; also called interleukin 2 receptor alpha
T1 sequence (looked up): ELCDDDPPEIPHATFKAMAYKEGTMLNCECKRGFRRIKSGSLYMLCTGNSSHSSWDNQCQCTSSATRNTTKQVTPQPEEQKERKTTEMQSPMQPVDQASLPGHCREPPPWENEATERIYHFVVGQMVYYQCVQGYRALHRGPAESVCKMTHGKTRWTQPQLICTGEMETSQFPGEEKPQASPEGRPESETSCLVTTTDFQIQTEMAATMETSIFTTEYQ
In words: SPR, drawn table 'Individual Receptor Subunit Binding', column 'Affinity for IL-2Rα Kd (nM)'.

In assay [2] the target is T2, human CD122 (IL-2Rβ) (human, UniProt P14784 27-240).
T2 construct: Receptor reagent used in SPR; also called interleukin 2 receptor beta
T2 sequence (looked up): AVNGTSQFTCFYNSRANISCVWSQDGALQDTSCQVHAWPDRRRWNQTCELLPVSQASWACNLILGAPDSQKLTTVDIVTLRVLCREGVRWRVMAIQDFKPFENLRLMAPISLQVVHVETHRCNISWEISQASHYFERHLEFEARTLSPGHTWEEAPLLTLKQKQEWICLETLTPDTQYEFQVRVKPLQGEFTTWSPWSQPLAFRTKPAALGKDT
In words: SPR, drawn table 'Individual Receptor Subunit Binding', column 'Affinity for IL-2Rβ Kd (nM)'. For orientation: Surface plasmon resonance follows binding to a sensor surface in real time, without labels.

The target of assay [3] is T2, human CD122 (IL-2Rβ). Description: SPR; 1:1 binding fit. As to the method:
(§1) Binding interactions between proteins using purified preparations or complex mixtures can be examined quantitatively in their native state and can assess binding specificity, stoichiometry, concentration, thermodynamics, kinetics (association, kₐ, and dissociation, kd, rate constants), and overall affinity (equilibrium dissociation constant, KD=kd/kₐ). Sensor chips (CM5) were activated (420 s at a flow rate of 10 μL/min) and 50 μg/mL of Anti-histidine antibody (in Immobilization buffer 10 mM Sodium Acetate (pH4.5)) was injected (420 s at a flow rate of 10 μL/min). For ligand capturing, samples were diluted to 5 μg/mL (HEPES, with 0.005% Tween-20, ph7.4) and injected (flow rate of 10 μL/min) to reach a capture level of ~200 RU. Receptors were diluted and up to 8 concentrations as indicated and injected (flow rate of 30 μL/min) for an association phase of 120 seconds, followed by 300 seconds dissociation.

The target of assay [4] is T1, human CD25 (IL-2Rα). Description: SPR sensorgram, legend 0.195 to 50 nM. As to the method:
as §1

For assay [5], the target named is T3, γc (CD132, IL-2Rγ, common gamma chain) (human, UniProt P31785 23-369).
T3 sequence (looked up): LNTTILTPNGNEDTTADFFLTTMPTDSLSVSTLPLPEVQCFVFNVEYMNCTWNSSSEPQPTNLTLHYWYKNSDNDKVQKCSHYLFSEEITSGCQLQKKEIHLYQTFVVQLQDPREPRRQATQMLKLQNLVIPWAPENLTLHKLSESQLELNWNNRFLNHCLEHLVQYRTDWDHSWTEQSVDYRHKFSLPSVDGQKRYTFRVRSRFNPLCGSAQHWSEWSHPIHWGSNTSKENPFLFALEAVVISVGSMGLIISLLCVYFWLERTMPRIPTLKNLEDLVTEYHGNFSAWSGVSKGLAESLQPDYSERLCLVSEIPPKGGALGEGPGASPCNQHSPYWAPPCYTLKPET
In words: cell-based or functional assay.

Assay [6] addresses T1, human CD25 (IL-2Rα). In words: SPR sensorgram, series 62.5 to 1.953 nM. As to the method:
as §1

Assay [7] has as its target T2, human CD122 (IL-2Rβ). In words: SPR; 1:1 binding fit. The source holds these as a separate data set.
Assay [8] concerns the target T1, human CD25 (IL-2Rα). Description: SPR; 1:1 binding fit.
Assay [9] deals with T1, human CD25 (IL-2Rα). In words: SPR sensorgram, no concentration legend.
In assay [10] the target is T3, γc (CD132, IL-2Rγ, common gamma chain). In words: cell-based or functional assay. The source holds these as a separate data set.
The target in assay [11] is T1, human CD25 (IL-2Rα). In words: SPR; steady state affinity.
Assay [12] addresses T4, high affinity IL-2 receptor (human IL-2Rα, IL-2Rβ, IL-2Rγ) on HEK-Blue IL-2 reporter cells (human, UniProt P01589 22-272; P14784 27-551; P31785 23-369).
T4 sequence (looked up) 1: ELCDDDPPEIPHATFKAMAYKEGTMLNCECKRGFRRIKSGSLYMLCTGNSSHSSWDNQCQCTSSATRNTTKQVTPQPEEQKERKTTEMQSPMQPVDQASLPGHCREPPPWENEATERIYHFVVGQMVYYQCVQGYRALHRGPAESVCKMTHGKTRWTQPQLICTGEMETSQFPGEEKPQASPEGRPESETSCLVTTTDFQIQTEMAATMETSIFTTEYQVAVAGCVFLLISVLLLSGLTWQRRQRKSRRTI
T4 sequence (looked up) 2: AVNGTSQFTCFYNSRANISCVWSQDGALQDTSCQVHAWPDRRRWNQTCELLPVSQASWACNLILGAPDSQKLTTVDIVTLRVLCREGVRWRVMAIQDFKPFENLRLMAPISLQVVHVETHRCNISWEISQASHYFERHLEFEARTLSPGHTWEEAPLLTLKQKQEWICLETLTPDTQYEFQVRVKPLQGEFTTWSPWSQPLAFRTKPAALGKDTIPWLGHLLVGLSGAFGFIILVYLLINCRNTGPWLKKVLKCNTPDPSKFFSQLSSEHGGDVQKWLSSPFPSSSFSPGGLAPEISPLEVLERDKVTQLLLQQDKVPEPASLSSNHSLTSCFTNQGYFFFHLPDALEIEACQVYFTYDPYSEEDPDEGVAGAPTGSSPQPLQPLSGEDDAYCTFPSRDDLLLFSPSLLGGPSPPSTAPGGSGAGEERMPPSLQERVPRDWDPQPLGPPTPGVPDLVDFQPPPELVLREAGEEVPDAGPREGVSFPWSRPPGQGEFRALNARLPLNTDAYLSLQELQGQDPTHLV
T4 sequence (looked up) 3: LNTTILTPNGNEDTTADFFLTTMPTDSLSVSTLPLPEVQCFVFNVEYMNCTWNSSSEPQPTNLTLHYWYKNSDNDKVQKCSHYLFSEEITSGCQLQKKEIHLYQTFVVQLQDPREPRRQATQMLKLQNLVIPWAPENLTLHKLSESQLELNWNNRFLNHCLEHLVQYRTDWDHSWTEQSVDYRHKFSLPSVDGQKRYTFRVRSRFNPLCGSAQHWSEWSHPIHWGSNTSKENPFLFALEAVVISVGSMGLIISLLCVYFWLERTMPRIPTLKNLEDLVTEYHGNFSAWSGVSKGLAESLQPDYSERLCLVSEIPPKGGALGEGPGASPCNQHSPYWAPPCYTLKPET
Description: cell-based or functional assay.

Assay [13] has as its target T1, human CD25 (IL-2Rα). Description: SPR; steady state affinity. On the procedure: as §1
This is another data set of the same source.

For orientation: Kd means the constant that tells how readily two partners part at equilibrium. A higher Kd goes with lower affinity. Take MDNA109-Fc (Fc fusion): the Kd in [1] came to 14 nM; in assay [2], 2.7 nM.

B1: MDNA209FA-Fc (2:1) (Fc fusion)
chain: APTSSSTKKTQLQLEHLRLDLEMILNGINNYKNPKLTRMLTAKFYMPKKATELKHLQCLEEELKPLEEVLNLAQSKNFHFDPRDVVSNINVFVLELKGSETTFMCEYADETATIVEFLNRWITFCTSIIRTLT
notes: MDNA209 plus F42A, fused to Fc; also called TP40451F; not shown: linker (if any) and Fc region
In [3], B1 yielded a Kd of 5.51 nM. Further, the binding result in assay [4] is on record as “no binding (tested: 50 nM)”.

B2: MDNA209(3)FEAA-Fc (2:1) (Fc fusion)
chain: APTSSSTKKTQLQLEHLRLDLEMILNGINNYKNPKLTRMLTAKFYMPKKATELKHLQCLEEALKPLEEVLNLAQSKNFHFDPRDVVSNINVFVLELKGSETTFMCEYADETATIVEFLNRWITFCTSIISTLT
notes: MDNA209(3) (no S130R) plus F42A, E62A, fused to Fc; also called TP36872F; not shown: linker (if any) and Fc region
B2: the “fold decrease in agonist activity, HEK-Blue IL-2 reporter assay” value in assay [5] was around 60 fold. This molecule also yielded a Kd in [3] of 3.75 nM. Besides, the binding result in assay [6] is “no binding (tested: 62.5 nM)”.

B3: MDNA209(3)-Fc (Fc fusion)
chain: APTSSSTKKTQLQLEHLRLDLEMILNGINNYKNPKLTRMLTFKFYMPKKATELKHLQCLEEELKPLEEVLNLAQSKNFHFDPRDVVSNINVFVLELKGSETTFMCEYADETATIVEFLNRWITFCTSIISTLT
notes: MDNA209(3) (L18R, Q22E, L80F, R81D, L85V, I86V, I92F, Q126T) fused to Fc, made in CHO; not shown: linker (if any) and Fc region
On to B3, for which the Kd turned out to be 3.25 nM in assay [7] and 35.8 nM in assay [8].

B4: MDNA209FEAA-Fc-A11 (2:1:2) (Fc fusion)
chain: APTSSSTKKTQLQLEHLRLDLEMILNGINNYKNPKLTRMLTAKFYMPKKATELKHLQCLEEALKPLEEVLNLAQSKNFHFDPRDVVSNINVFVLELKGSETTFMCEYADETATIVEFLNRWITFCTSIIRTLT
notes: Bispecific format: IL-2 antagonist mutein with FEAA, Fc, and IL-13 mutein A11; also called Construct #10; not shown: linker (if any), Fc, linker and IL-13 mutein A11
In assay [3], B4 showed a Kd of 4.59 nM. Also, the binding result in [6] is “no binding (tested: 62.5 nM)”.

B5: MDNA209FEAA (free) (ligand)
chain: APTSSSTKKTQLQLEHLRLDLEMILNGINNYKNPKLTRMLTAKFYMPKKATELKHLQCLEEALKPLEEVLNLAQSKNFHFDPRDVVSNINVFVLELKGSETTFMCEYADETATIVEFLNRWITFCTSIIRTLT
For the molecule B5, the Kd in assay [7] is 1.59 nM. The binding result in assay [9] is recorded as “no binding”.

B6: MDNA209FEAA-Fc (2:1) (Fc fusion)
chain: APTSSSTKKTQLQLEHLRLDLEMILNGINNYKNPKLTRMLTAKFYMPKKATELKHLQCLEEALKPLEEVLNLAQSKNFHFDPRDVVSNINVFVLELKGSETTFMCEYADETATIVEFLNRWITFCTSIIRTLT
notes: MDNA209 plus F42A, E62A, fused to Fc; also called MDN209FEAA-Fc; TP36871F; not shown: linker (if any) and Fc region
The molecule B6 registered a Kd in [3] of 4.94 nM. Moreover, in assay [10], the “EC50 (agonist activity), HEK-Blue IL-2 reporter assay” value is above 107 nM and the “Fold against hIL-2 (agonist activity), HEK-Blue IL-2 reporter assay” value is around 2800 fold. Further, the binding result in [6] is given as “no binding (tested: 62.5 nM)”.

B7: MDNA209FEY-Fc (2:1) (Fc fusion)
chain: APTSSSTKKTQLQLEHLRLDLEMILNGINNYKNPKLTRMLTAKFAMPKKATELKHLQCLEEELKPLEEVLNLAQSKNFHFDPRDVVSNINVFVLELKGSETTFMCEYADETATIVEFLNRWITFCTSIIRTLT
notes: MDNA209 plus F42A, Y45A, fused to Fc; also called TP40452F; not shown: linker (if any) and Fc region
With B7, the Kd in assay [3] was found to be 4.99 nM. Also, the binding result in [4] is on record as “no binding (tested: 50 nM)”.

B8: MDNA209(3)FA-Fc (Fc fusion)
chain: APTSSSTKKTQLQLEHLRLDLEMILNGINNYKNPKLTRMLTAKFYMPKKATELKHLQCLEEELKPLEEVLNLAQSKNFHFDPRDVVSNINVFVLELKGSETTFMCEYADETATIVEFLNRWITFCTSIISTLT
notes: MDNA209(3) plus F42A fused to Fc, made in CHO; not shown: linker (if any) and Fc region
As for B8, the Kd in assay [7] is 3.79 nM; in assay [11], 4610 nM.

B9: MDNA209-Fc (2:1) (Fc fusion)
chain: APTSSSTKKTQLQLEHLRLDLEMILNGINNYKNPKLTRMLTFKFYMPKKATELKHLQCLEEELKPLEEVLNLAQSKNFHFDPRDVVSNINVFVLELKGSETTFMCEYADETATIVEFLNRWITFCTSIIRTLT
notes: IL-2 mutein MDNA209 (L18R, Q22E, L80F, R81D, L85V, I86V, I92F, Q126T, S130R) fused to Fc; (2:1) read as two muteins per Fc dimer; order from the name; also called MDNA209 (2:1) Fc; Construct #8; not shown: linker (if any) and Fc region
B9 registered a Kd in [3] of 3.91 nM. Moreover, in assay [12], the “Fold against IL-2-Fc alone, HEK-Blue IL-2 reporter assay, antagonist format” value amounted to 15.1 fold and the “fold decrease in Fold against hIL-2, HEK-Blue IL-2 reporter assay, fixed agonist format” value stood at 210 fold. The same molecule yielded a Kd in assay [13] of 39.1 nM.

B10: MDNA209 (free) (ligand)
chain: APTSSSTKKTQLQLEHLRLDLEMILNGINNYKNPKLTRMLTFKFYMPKKATELKHLQCLEEELKPLEEVLNLAQSKNFHFDPRDVVSNINVFVLELKGSETTFMCEYADETATIVEFLNRWITFCTSIIRTLT
For B10, the equilibrium dissociation constant (Kd) was 0.537 nM in [7] and 31.3 nM in assay [8].
